The record followed here is PMC4189786.

The target in the data set is serum albumin (HSA in Results and figures; Methods state purchased bovine serum albumin, Sigma A7030) ((Methods: bovine)) (UniProt P02769). The data set is described as follows: tryptophan fluorescence quenching. Conditions: 6 uM albumin, off-target, 6 uM albumin in phosphate buffer (10 mM) pH 7.4, 37 C, excitation 290 nm, emission 300-400 nm, 90 s after each aptamer addition.
Chain of serum albumin (HSA in Results and figures; Methods state purchased bovine serum albumin, Sigma A7030) ((Methods: bovine)) (P02769 25-607): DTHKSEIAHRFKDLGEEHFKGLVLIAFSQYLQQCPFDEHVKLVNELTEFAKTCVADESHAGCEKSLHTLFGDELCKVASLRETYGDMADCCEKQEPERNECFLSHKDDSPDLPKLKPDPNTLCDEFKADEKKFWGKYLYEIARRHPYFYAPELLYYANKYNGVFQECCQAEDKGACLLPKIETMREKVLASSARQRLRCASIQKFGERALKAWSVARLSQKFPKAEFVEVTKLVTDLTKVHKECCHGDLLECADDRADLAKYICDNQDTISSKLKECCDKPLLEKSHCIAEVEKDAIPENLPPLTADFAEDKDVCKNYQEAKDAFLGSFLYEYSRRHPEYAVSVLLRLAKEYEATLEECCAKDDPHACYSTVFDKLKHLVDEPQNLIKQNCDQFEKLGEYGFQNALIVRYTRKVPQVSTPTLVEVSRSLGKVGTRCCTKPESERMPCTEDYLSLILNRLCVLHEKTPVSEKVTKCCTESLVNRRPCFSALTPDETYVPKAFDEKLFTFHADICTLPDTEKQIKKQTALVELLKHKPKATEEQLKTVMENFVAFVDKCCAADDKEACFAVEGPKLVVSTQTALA

As for “ACTTTTGAATGTGGCAACAAATTCGACAGG [1.5 M Short]”, the binding signal turned out to be 9 % quenching (aptamer:HSA 1:10) and 1.5 % quenching (aptamer:HSA 1:100).
Take “GGGAGACAAGAATAAACGCTCAAATGGACTTTTGAATGTGGCAACAAATTCGACAGGAGGCTCACAACAGGC [1.5 M Long]”: the binding signal is, setting by setting: (aptamer:HSA 1:10) 16 % quenching; (aptamer:HSA 1:100) 2.4 % quenching.
